B1: KIAA1614 peptide 568-583 (uncharacterized protein KIAA1614), 16-mer library wild type / USP8 rhodanese domain (ubiquitin carboxyl-terminal hydrolase 8, residues 174-317) (parent)
chain 1: GMERVLGGLSSPLRLL
chain 2: KCETKEKGAITAKELYTMMTDKNISLIIMDARRMQDYQDSCILHSLSVPEEAISPGVTASWIEAHLPDDSKDTWKKRGNVEYVVLLDWFSSAKDLQIGTTLRSLKDALFKWESKTVLRNEPLVLEGGYENWLLCYPQYTTNAKV

Variants of: B1
Experiment: peptide-phage display deep mutational scan (M13, 16-mer library, displayed with a C-terminal GGGSG linker encoded by the 3' flank) selected against the GST-tagged USP8 rhodanese domain, four rounds; NGS counts summed over selection …
Settings: with USP8 rhodanese domain (ubiquitin carboxyl-terminal hydrolase 8, residues 174-317), 10 µg GST-bait on MaxiSorp, pre-cleared on GST, 2 h at 4 °C, five washes with 0.05% Tween 20 in PBS, not graded, scale: average over two replicas of the peptide's fractional NGS count

screen value | Variant
6.32e-06 | chain 1 GMERVLGGLSSPLRIL [chain 1 L15I]
0.00178 | chain 1 GMERVLGGNSSPLRLL [chain 1 L9N]
3.79e-05 | chain 1 GMERVLGGFSSPLRLL [chain 1 L9F]
6.32e-06 | chain 1 GMERVLGDLSSPLRLL [chain 1 G8D]
0.00145 | chain 1 GMERVLGGLSSPTRLL [chain 1 L13T]
3.09e-05 | chain 1 GMERVLGGLSSPFRLL [chain 1 L13F]
1.26e-05 | chain 1 GMERVLGGLSSPRRLL [chain 1 L13R]
0.000258 | chain 1 GMERVLGGLSSPMRLL [chain 1 L13M]
0.000122 | chain 1 GMERVLGGLSSPYRLL [chain 1 L13Y]
0.000708 | chain 1 EMERVLGGLSSPLRLL [chain 1 G1E]
0.0088 | chain 1 QMERVLGGLSSPLRLL [chain 1 G1Q]
0.000202 | chain 1 KMERVLGGLSSPLRLL [chain 1 G1K]
6.32e-06 | chain 1 FMERVLGGLSSPLRLL [chain 1 G1F]
0.00104 | chain 1 PMERVLGGLSSPLRLL [chain 1 G1P]
0.000246 | chain 1 GMERVLGGLSSPLRLH [chain 1 L16H]
6.32e-06 | chain 1 GMERVLGGLSSPLRLN [chain 1 L16N]
1.55e-05 | chain 1 GMERVLGGLSSPLRLT [chain 1 L16T]
6.32e-06 | chain 1 GMERVLGGLSSQLRLL [chain 1 P12Q]
0.000793 | chain 1 GMERVLGGLSSPLLLL [chain 1 R14L]
3.44e-05 | chain 1 GMERVLGGLSSPLQLL [chain 1 R14Q]

screen value | Variant
0.00138 | chain 1 GMERVLGGLSSPLFLL [chain 1 R14F]
0.000346 | chain 1 GMERVLGGLSSPLHLL [chain 1 R14H]
0.00337 | chain 1 GMERVLGGLSSPLWLL [chain 1 R14W]
0.000596 | chain 1 GMERVLLGLSSPLRLL [chain 1 G7L]
0.0068 | chain 1 GMERVLVGLSSPLRLL [chain 1 G7V]
0.00722 | chain 1 GMERVLFGLSSPLRLL [chain 1 G7F]
0.000322 | chain 1 GMERVLHGLSSPLRLL [chain 1 G7H]
1.55e-05 | chain 1 GMERVLPGLSSPLRLL [chain 1 G7P]
0.00247 | chain 1 GMERVLNGLSSPLRLL [chain 1 G7N]
0.000164 | chain 1 GMERVPGGLSSPLRLL [chain 1 L6P]
0.000133 | chain 1 GMWRVLGGLSSPLRLL [chain 1 E3W]
0.00108 | chain 1 GMQRVLGGLSSPLRLL [chain 1 E3Q]
0.014 | chain 1 GMERQLGGLSSPLRLL [chain 1 V5Q]
0.000121 | chain 1 GMERRLGGLSSPLRLL [chain 1 V5R]
0.00189 | chain 1 GMERPLGGLSSPLRLL [chain 1 V5P]
0.0104 | chain 1 GMERTLGGLSSPLRLL [chain 1 V5T]
0.011 | chain 1 GMERWLGGLSSPLRLL [chain 1 V5W]
0.000344 | chain 1 GMERLLGGLSSPLRLL [chain 1 V5L]
0.000682 | chain 1 GMERVLGGLSTPLRLL [chain 1 S11T]
